Drawing on patent US20100081620A1 (BIOZYME, published 2010), this text covers Ki for two molecules.

Where two headings read alike, the source gives them in different places.

One assay addresses T1, MMP 14.
T1 construct: also called matrix metalloproteinase 14
The experiment in a line: enzyme inhibition, fluorescent peptide substrate. The method, then:
(§1) Inhibition assays with TACE and ADAM 10. Activity of TACE catalytic/disintegrin, TACE catalytic, or ADAM10 catalytic/disintegrin constructs was monitored at 3 minute intervals using the fluorescent substrate, Dabcyl-LAQAHomoPheRSC(Fluorescein)-NH₂ (SEQ ID NO 17) with excitation 485 nm and emission 530 nm. The substrate was diluted from a 10 mM stock in DMSO to 10 μM in assay buffer containing 20 mM Tris, pH 8.0, and 0.0006% Brij-35. Reactions were run in a 96-well black-coated plate with either ADAM10 prodomain (10 nM-1.0 μM) alone or with enzyme. Concentrations of enzyme ranged from 0.5-2.0 nM for TACE and 5-15 nM for ADAM10. For assays with TACE and ADAM8 prodomain, the range of concentrations varied from 1-4.7 μM.
(§2) Inhibition assays with MMPs. The fluorescent substrate Dabcyl-[…](Fluorescein)-NH₂ (SEQ ID NO 18) (10 μM) in assay buffer containing 50 mM Tris, pH 7.5, 150 mM NaCl, 2 mM CaCl₂, 5 μM ZnSO₄, and 0.01% Brij-35 was used to monitor enzyme activities. MMPs 1, 2, 3, 9, 13, and 14 (0.1-20 nM) were incubated with substrate in the absence or presence of prodomain (3-30 μM). Fluorescence intensities were measured every 3-5 minutes at an emission wavelength of 530 nm (excitation 485 nm).
(§3) Inhibition assays with ADAM 9. The fluorescent substrate, Dabcyl-PchaGC(Me)HAK(Fam)-NH₂ (SEQ ID NO 19) (10 μM), in a buffer containing 25 mM Tris, pH 8.0, 0.0006% Brij-35, was used to measure human ADAM 9 catalytic/disintegrin domains activity. The ADAM 9 was provided as a 0.1 μg/μl stock solution, from which 3 μl was added to start the reaction in the absence or presence of ADAM10 prodomain (78-5000 nM). Fluorescence intensities were measured every 10-20 minutes at excitation and emission wavelengths of 485 and 530 nm respectively.

In a further assay the target is T2, MMP 3.
T2 construct: also called matrix metalloproteinase 3
T2 sequence (P08254 100-477): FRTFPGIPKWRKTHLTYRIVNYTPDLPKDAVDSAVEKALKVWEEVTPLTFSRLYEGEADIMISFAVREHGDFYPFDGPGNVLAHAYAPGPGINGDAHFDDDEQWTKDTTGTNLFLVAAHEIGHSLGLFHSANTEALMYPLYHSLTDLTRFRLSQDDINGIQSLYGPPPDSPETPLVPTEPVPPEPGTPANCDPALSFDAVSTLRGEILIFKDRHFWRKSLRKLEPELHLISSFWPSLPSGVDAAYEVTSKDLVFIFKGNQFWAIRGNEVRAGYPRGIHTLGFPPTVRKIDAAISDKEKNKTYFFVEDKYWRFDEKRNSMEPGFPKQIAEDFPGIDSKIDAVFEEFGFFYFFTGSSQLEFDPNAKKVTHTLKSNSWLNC
The assay is described as follows: enzyme inhibition, fluorescent peptide substrate. The method, then:
as §1, §2, §3

Assay [1] deals with T3, Human ADAM10 protease containing the catalytic/disintegrin domains (human, UniProt O14672 214-672, limits assumed).
T3 construct: domain: catalytic/disintegrin domains; Bought; also called ADAM 10 (human) Cat/Dis; ADAM10 catalytic/disintegrin construct
T3 sequence (looked up): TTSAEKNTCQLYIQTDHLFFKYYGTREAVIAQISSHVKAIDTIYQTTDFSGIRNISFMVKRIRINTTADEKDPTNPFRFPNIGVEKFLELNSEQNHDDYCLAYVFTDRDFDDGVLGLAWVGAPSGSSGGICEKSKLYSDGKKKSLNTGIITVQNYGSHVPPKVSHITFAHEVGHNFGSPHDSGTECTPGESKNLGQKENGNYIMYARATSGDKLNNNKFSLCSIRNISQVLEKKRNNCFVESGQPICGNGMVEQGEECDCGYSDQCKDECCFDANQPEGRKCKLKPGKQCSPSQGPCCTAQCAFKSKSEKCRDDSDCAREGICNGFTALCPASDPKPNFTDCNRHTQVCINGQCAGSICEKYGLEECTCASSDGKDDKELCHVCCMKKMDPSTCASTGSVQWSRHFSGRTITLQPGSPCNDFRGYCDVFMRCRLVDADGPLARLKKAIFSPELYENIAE
The experiment in a line: enzyme inhibition, fluorescent peptide substrate. How it is done: as §1, §2, §3

Assay [2] concerns the target T4, Human TACE protease containing the catalytic/disintegrin domains (human, UniProt P78536 215-671, limits assumed).
T4 construct: domain: catalytic/disintegrin domains; Bought; also called TACE (human) Cat/Dis; TACE catalytic/disintegrin
The experiment in a line: enzyme inhibition, fluorescent peptide substrate. The method, then:
as §1, §2, §3

For assay [3], the target named is T5, TACE catalytic domain (human) (human, UniProt P78536 215-477, limits assumed).
T5 construct: domain: catalytic domain; also called TACE (human) Cat
T5 sequence (P78536 215-477 limits assumed): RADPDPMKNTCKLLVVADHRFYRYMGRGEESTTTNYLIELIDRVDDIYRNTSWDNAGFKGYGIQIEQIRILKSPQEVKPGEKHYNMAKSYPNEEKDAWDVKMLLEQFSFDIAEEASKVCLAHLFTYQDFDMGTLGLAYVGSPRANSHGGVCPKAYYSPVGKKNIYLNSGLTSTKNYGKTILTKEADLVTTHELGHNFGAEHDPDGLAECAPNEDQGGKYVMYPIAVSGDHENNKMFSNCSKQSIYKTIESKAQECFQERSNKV
The assay is described as follows: enzyme inhibition, fluorescent peptide substrate. The method, then:
as §1, §2, §3

Another assay addresses T6, MMP 13.
T6 construct: also called matrix metalloproteinase 13
The assay is described as follows: enzyme inhibition, fluorescent peptide substrate. The method, then: as §1, §2, §3

The next assay has as its target T7, MMP 1.
T7 construct: also called matrix metalloproteinase 1
The experiment in a line: enzyme inhibition, fluorescent peptide substrate. The method, then:
as §1, §2, §3

For a further assay, the target named is T8, MMP 9.
T8 construct: also called matrix metalloproteinase 9
T8 sequence (P14780 107-707): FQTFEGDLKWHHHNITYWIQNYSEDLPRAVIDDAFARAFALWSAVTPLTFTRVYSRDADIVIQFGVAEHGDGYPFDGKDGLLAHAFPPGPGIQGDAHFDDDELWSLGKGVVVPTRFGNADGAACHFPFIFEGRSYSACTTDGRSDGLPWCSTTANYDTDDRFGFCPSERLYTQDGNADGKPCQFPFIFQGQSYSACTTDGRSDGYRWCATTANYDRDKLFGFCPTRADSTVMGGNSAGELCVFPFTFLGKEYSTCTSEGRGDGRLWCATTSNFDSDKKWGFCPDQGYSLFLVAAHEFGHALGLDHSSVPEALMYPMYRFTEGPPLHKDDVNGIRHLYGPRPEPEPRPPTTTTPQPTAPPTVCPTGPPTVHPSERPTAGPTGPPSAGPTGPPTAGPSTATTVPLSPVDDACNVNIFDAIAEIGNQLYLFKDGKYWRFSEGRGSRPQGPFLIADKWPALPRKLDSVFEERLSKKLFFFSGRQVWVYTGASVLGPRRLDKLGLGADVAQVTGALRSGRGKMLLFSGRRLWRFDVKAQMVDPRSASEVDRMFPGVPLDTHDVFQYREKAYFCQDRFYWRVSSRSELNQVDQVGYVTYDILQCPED
The experiment in a line: enzyme inhibition, fluorescent peptide substrate. The method, then:
as §1, §2, §3

In a further assay the target is T9, MMP 2.
T9 construct: also called matrix metalloproteinase 2
T9 sequence (P08253 110-660): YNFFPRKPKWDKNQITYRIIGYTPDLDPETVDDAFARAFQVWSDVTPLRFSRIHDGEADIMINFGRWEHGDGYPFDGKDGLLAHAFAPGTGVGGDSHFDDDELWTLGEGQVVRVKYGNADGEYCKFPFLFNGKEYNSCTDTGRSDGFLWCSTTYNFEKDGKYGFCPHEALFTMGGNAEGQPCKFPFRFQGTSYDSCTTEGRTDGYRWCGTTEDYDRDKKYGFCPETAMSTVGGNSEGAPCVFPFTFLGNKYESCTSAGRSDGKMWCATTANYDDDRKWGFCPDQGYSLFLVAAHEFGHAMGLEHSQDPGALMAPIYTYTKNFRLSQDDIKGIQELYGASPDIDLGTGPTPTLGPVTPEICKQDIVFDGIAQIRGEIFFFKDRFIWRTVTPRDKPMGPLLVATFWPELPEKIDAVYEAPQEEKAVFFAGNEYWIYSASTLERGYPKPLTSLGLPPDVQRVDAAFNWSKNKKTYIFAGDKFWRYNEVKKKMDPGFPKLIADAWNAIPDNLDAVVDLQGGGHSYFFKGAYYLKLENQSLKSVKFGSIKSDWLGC
The experiment in a line: enzyme inhibition, fluorescent peptide substrate. The method, then:
as §1, §2, §3

In assay [4] the target is T3, Human ADAM10 protease containing the …. The assay is described as follows: enzyme inhibition, fluorescent peptide substrate; fit to a pure competitive model. The method, then:
ADAM 10 protein was diluted 1:100 in buffer 25 mM Tris pH 8, 0.0006% Brij-35 and then 10 μl was added to 88 μl of substrate (20-100 μM), Dabcyl-LAQAHomoPheRSC(Fluorescein)-NH₂ with excitation 485 nm and emission 530 nm. Prodomain, 2 μl, in 25 mM Tris, pH 8, 100 mM NaCl, 10% glycerol, 0.1% mercaptoethanol, and 50 μM CaCl₂ was added to substrate before addition of enzyme. The final concentration of prodomain ranged from 17-170 nM. The fluorescence vs time was plotted, and slopes were taken from straight line fits of initial velocities. The reciprocal of the velocities was plotted vs the reciprocal of substrate squared since the normal Lineweaver Burke plot gave curved lines. The initial velocities vs substrate concentrations were fit as a family of curves to several allosteric models. The data fit best to a pure competitive model as described in the following equation where binding of inhibitor prevents substrate from binding to both sites: […]

Assay [5] concerns the target T10, human ADAM 9 catalytic/disintegrin domains (human, UniProt Q13443 206-697, limits assumed).
T10 construct: domain: catalytic/disintegrin domains; Bought; also called ADAM 9 (human)
T10 sequence (looked up): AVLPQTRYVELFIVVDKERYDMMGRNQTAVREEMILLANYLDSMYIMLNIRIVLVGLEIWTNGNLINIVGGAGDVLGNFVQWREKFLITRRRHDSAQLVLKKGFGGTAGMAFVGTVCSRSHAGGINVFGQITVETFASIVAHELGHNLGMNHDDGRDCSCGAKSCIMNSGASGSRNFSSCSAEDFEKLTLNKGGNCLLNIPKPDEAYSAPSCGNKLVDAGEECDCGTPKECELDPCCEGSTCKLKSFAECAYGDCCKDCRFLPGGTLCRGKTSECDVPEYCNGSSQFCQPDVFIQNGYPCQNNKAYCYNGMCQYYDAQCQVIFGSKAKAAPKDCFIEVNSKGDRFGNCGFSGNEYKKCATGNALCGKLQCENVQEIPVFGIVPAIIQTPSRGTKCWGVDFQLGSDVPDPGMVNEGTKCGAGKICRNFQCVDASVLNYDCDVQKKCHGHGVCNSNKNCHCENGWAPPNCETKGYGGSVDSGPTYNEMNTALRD
The assay is described as follows: enzyme inhibition, fluorescent peptide substrate. How it is done:
as §1, §2, §3

For assay [6], the target named is T11, ADAM 8 catalytic domain (mouse) (mouse, UniProt Q05910 196-395, limits assumed).
T11 construct: domain: catalytic domain; also called ADAM 8 (mouse); ADAM 8 (mouse) Cat
T11 sequence (looked up): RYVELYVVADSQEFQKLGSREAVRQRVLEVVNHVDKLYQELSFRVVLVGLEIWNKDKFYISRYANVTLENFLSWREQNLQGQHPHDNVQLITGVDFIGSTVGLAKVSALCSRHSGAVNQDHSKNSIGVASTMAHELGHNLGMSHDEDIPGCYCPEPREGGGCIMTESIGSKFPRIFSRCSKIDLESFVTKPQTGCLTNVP
The experiment in a line: enzyme inhibition, fluorescamine assay with Dnp peptide substrate. The method, then:
Inhibition assays with ADAM 8. The ADAM 8 catalytic domain was expressed and purified from E. coli as described (22). A substrate based on the L-selectin cleavage site, Dnp-INorIeu[…]-NH₂ (SEQ ID NO 20), was used to monitor enzyme activity with a fluorescamine assay. From a concentrated 50 mM solution in DMSO, the substrate was diluted 1:500 in 25 mM HEPES, pH 8.0, 0.0006% Brij-35. To 100 μl of diluted substrate was added either 5 μl of buffer (Tris, pH 8.0, 150 mM KCl) or 5 μl of ADAM10 prodomain (1-10 μM). Zero time points were taken by diluting 12.5 μl of the reaction mixture into 100 μl of fluorescamine buffer (50 mM HEPES, pH 8.0, 0.2 M NaCl, 0.01 M CaCl₂, 0.01% Brij-35) in a 96-well black-coated plate. Before measuring fluorescence, 3 μl of a 1% solution of fluorescamine in DMSO was added to each well. The plate was allowed to incubate for 10 min in the dark before measuring fluorescence (excitation wavelength at 390 nm, emission wavelength at 485 nm). For assays with TACE and ADAM8 prodomains, a fluorescent substrate was used to monitor activity at concentrations of prodomains ranging from 1-4.7 μM.
Calculation of inhibition constants. The amount of activity was calculated by subtracting the ADAM 10 prodomain control from the ADAM 10 prodomain with enzyme. […]

Assay [7] addresses T10, human ADAM 9 catalytic/disintegrin …. The assay is described as follows: enzyme inhibition, fluorescent peptide substrate. How it is done: as §3
Calculation of inhibition constants. The amount of activity was calculated by subtracting the ADAM 10 prodomain control from the ADAM 10 prodomain with enzyme. All inhibition assays were performed at room temperature and the data fit to the following equation using Sigma Plot software: […]
This is another data set of the same source.

T4 sequence (P78536 215-671 limits assumed): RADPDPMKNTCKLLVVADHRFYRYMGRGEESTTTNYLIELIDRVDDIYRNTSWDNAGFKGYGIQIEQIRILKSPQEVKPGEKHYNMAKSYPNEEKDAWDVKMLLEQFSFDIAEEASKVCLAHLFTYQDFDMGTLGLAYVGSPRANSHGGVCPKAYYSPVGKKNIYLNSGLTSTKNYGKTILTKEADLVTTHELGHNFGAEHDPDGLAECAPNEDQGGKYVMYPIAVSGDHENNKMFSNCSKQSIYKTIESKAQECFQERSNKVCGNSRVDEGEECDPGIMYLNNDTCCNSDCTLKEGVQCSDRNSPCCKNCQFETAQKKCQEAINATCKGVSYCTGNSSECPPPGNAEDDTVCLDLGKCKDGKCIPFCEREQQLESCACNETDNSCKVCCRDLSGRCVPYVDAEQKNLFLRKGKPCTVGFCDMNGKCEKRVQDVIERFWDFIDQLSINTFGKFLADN
T7 sequence (P03956 100-469): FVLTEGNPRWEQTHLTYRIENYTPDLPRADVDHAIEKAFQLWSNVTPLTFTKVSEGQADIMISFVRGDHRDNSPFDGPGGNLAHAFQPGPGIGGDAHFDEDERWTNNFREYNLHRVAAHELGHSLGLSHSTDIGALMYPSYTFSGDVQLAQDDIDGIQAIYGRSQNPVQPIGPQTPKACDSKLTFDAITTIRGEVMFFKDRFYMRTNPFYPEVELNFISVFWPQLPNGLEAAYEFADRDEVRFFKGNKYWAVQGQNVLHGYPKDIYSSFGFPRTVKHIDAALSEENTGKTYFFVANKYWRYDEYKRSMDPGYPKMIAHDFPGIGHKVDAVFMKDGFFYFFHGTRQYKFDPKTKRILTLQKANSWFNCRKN

B1: wt ProADAM 10 23-213 (N-terminal His tag) (other)
chain: NPLNKYIRHYEGLSYNVDSLHQKHQRAKRAVSHEDQFLLLDFHAHGRQFNLRMKRDTSLFSDEFKVETSNKVPDYDTSHIYTGHIYGEEGSFSHGSVIDGRFEGFIKTRGGTFYIEPAERYIKDRILPFHSVIYHEDDINYPHKYGPQGGCADHSVFERMRKYQMTGVEEGARAHPEKHAASSGPELLRKK
notes: Expressed in E. coli, purified on Ni-NTA and Superdex-75; the wild type has Cys there; not shown: N-terminal His tag and leader encoded by the pRSET vector (insert at BamHI/EcoRI)
Consider B1, for which the Ki was > 2000 nM in the assay with MMP 14; > 2000 nM with MMP 3; 75 nM in assay [1]; > 3000 nM in [2]; > 11000 nM in assay [3]; > 2000 nM with MMP 13. Further, the Ki in the assay with MMP 1, with MMP 9 and with MMP 2 was > 2000 nM in each case.

B2: wt ProADAM 10 23-213 (C-terminal His tag) (other)
chain: NPLNKYIRHYEGLSYNVDSLHQKHQRAKRAVSHEDQFLLLDFHAHGRQFNLRMKRDTSLFSDEFKVETSNKVPDYDTSHIYTGHIYGEEGSFSHGSVIDGRFEGFIKTRGGTFYIEPAERYIKDRILPFHSVIYHEDDINYPHKYGPQGGCADHSVFERMRKYQMTGVEEGARAHPEKHAASSGPELLRKKHHHHHH
notes: the wild type has Cys there
Take B2: the inhibition constant Ki in assay [4] was 48 nM; in [2], > 10000 nM; in assay [3], > 11000 nM; in assay [5] it was > 1000 nM; in assay [6] it was > 10000 nM; in assay [7] it was ~1000 nM.
